Source: patent US11630109B2, “Sensors and assays for ubiquitin or ubiquitin-like proteins” (Colorado State University Research Foundation, priority 2013, dated 2023)

How the values were obtained:
Type in all cases: binding
Nedd8 [1] = target: T1, Nedd8 (Homo sapiens, UniProt Q15843); experiment: Fluorescence intensity titration of Atto532-tIV with free Nedd8
Protocol: FIG. 22 provides a graph showing that Atto532-tagged tIV L1 Cys binds to free Nedd8 with a Kd of several μM.
Increasing concentrations of free Nedd8 protein were added to Atto532-tIV, and the fluorescence intensity was measured (see FIG. 22).

Nedd8 [2] = target: T1, Nedd8; experiment: tSR competition assay with Atto532-tagged ubiquitin, relative fluorescence; conditions: 5 nM Atto532-tagged ubiquitin protein and 600 nM tSR
Protocol: (§1) A competition assay was performed where unconjugated free ubiquitin proteins, different kinds of conjugated free ubiquitin proteins, and Nedd8 were added to mixtures of 5 nM Atto532-tagged ubiquitin protein and 600 nM tSR. The relative fluorescence was measured. […] The Ki values for unconjugated ubiquitin proteins and the different kinds of conjugated free ubiquitin proteins are provided in a table (bottom).
as §1, with “The binding affinities of tSR were determined (see FIG. 25). A competition” for “A competition”, “performed where free ubiquitin” for “performed where unconjugated free ubiquitin”, “a table (see FIG. 25).” for “a table (bottom).”

[3] = target: unconjugated ubiquitin protein (Homo sapiens, UniProt P0CG48); experiment: Direct titration of Alexa488-tagged tSR, relative fluorescence; conditions: 10 nM Alexa488 tSR
Protocol: (§2) The relative fluorescence intensity changes of Alexa488-tagged tSR when ubiquitin is added is shown (middle). The relative fluorescence of 10 nM Alexa488 tSR when different concentrations of unconjugated ubiquitin protein, conjugated ubiquitin protein, or Nedd8 are added (right).
(§3) The tSR can be used for direct titration experiments (see FIG. 26). The relative fluorescence intensity changes of Alexa488-tagged tSR when ubiquitin is added at varying concentrations. The relative fluorescence of 10 nM Alexa488 tSR was measured with different concentrations of unconjugated ubiquitin protein, conjugated ubiquitin protein, or Nedd8.

[4] = tested on: conjugated ubiquitin protein; experiment: as above; conditions: 10 nM Alexa488 tSR
Protocol: as §2, §3

Nedd8 [5] = target: T1, Nedd8; experiment: as above; conditions: 10 nM Alexa488 tSR
Protocol: as §2, §3

T1 sequence (Q15843 1-76 limits assumed): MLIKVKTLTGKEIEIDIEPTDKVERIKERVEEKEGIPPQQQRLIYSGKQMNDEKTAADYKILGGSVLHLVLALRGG

B1: tIV: chimeric protein with two ubiquitin binding domains, IsoT ZnF and Vps27 UIM, SEQ ID NO: 5 (protein)
chain: MGSSHHHHHHSSGLVPRGSHMKQEVQAWDGEVRQVSKHAFSLKQLDNPARIPPSGWKCSKCDMRENLWLNLTDGSILCGRRYFDGSGGNNHAVEHYRETGYPLAVKLGTITPDGADVWSYDEDDMVLDPSLAEHLSHFGIDMLKMQKGSCAAAEEAELDLKAAIQESLREA
modifications: tIV - Atto532-tagged chimeric polypeptide comprising two binding domains that bind ubiquitin in non-overlapping regions
binding affinity for free Nedd8 protein compared with conjugated Nedd8 protein (Nedd8 [1]; predicted from binding interactions of Vps27UIM and Nedd8): greater binding affinity

B2: Atto532-tagged tIV L1 Cys: tIV L1 Cys (SEQ ID NO: 5) tagged with Atto532 fluorophore at the linker Cys (conjugate)
chain: B1 chain
modifications: Atto532 fluorophore on linker Cys; tIV - Atto532-tagged chimeric polypeptide comprising two binding domains that bind ubiquitin in non-overlapping regions
KD for Nedd8 (Nedd8 [1]; free Nedd8 added to Atto532-tIV, fluorescence intensity): several

B3: tSR: universal chimeric polypeptide sensor, SEQ ID NO: 7: S5a UIM and Ruz domains connected by a linker (protein)
chain: MPSSHHHHHHSSGLVPRGSHMTEEEQIAYAMQMSLREAGGGSDLLCKKGCGYYGNPAWQGFCSKCWREEAHKCAAERAAAE
modifications: tSR - chimeric polypeptide comprising two binding domains that bind ubiquitin in non-overlapping regions
specificity against Nedd8 (Nedd8 [2]): specificity against Nedd8

B4: Alexa488-tagged tSR: tSR tagged with Alexa488 fluorophore (conjugate)
chain: B3 chain
binding of unconjugated ubiquitin protein [3]: detected | binding of conjugated ubiquitin protein [4]: detected | binding of Nedd8 protein (Nedd8 [5]): but not Nedd8 protein
